Reference: the supplement of paper PMC7877785
± gives the uncertainty stated by the source.

Experiment: self-splicing fitness, log relative to wild type (ln ratio); higher = more splicing; Tetrahymena group I intron in knt gene, E. coli kanamycin selection, DiMSum; sequences stand for … in CUCUCU…GGAGGGAAAAGUUAUCAGGCAUGCACCUGGUAGCUAGUCUUUAAACCAAUAGAUUGCAUCGGUUUAAAAGGCAAGACCGUCAAAUUGCGGGAAAGGGGUCAACAGCCGUUCAGUACCAAGUCUCAGGGGAAACUUUGAGAUGGCCUUGCAAAGGGUAUGGUAAUAAGCUGACGGACAUGGUCCUAACCACGCAGCCAAGUCCUAAGUCAACAGAUCUUCUGUUGAUAUGGAUGCAGUUCACAGACUAAAUGUCGGUCGGGGAAGAUGUAUUCUUCUCAUAAGAUAUAGUCGGACCUCUCCUUAAUGGGAGCUAGCGGAUGAAGUGAUGCAACACUGGAGCCGCUGGGAACUAAUUUGUAUGCGAAAGUAUAUUGAUUAGUUUUGGAGUACUCGUGGUCG
Outline: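 Fitness was computed with DiMSum as the error-weighted combination of replicate fold changes, kanamycin versus none, each normalised to wild type. The library randomised all eight intron nucleotides of the P1ex region, with the intron placed in the knt kanamycin-resistance gene on pET-22b(+) in E. coli BL21(DE3). Six replicate transformations were grown overnight at 37°C or 30°C on LB agar with or without 25 μg/mL kanamycin, plus 100 μg/mL carbenicillin, 50 μM IPTG and 0.2% rhamnose. Pooled colonies were amplicon-sequenced on an Illumina HiSeq 2500.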

Row | Sequence | self-splicing fitness (ln) (30 °C) | self-splicing fitness (ln) (37 °C)
1 | GAGUAGCAAUAUUACGAUCC | -1.55 ± 0.092 | -0.509 ± 0.11
2 | CAUGAGCAAUAUUACGACGU | -4.25 ± 0.39 | -0.969 ± 0.2
3 | UGUGAGCAAUAUUACGUGUA | -1.49 ± 0.29 | -1.46 ± 0.28
4 | GACGAGCAAUAUUACGCUUA | -2.29 ± 0.15 | -1.13 ± 0.14
5 | GCGUAGCAAUAUUACGGGUG | -1.55 ± 0.08 | -1.46 ± 0.091
6 | UCAGAGCAAUAUUACGCGCA | -1.19 ± 0.2 | -1.69 ± 0.29
7 | AGAGAGCAAUAUUACGACGA | – | -1.61 ± 0.29
8 | UUUUAGCAAUAUUACGAUAG | -0.792 ± 0.26 | -0.639 ± 0.46
9 | CGAUAGCAAUAUUACGAACC | -2.68 ± 0.27 | -0.913 ± 0.28
10 | GACGAGCAAUAUUACGUGGG | -4.32 ± 0.36 | -3.12 ± 0.2
11 | AACGAGCAAUAUUACGCAUG | -4.23 ± 0.31 | -2.76 ± 0.29
12 | UCAGAGCAAUAUUACGUGAC | -3.69 ± 0.28 | -1.9 ± 0.23
13 | AUAUAGCAAUAUUACGCUAG | -1.69 ± 0.25 | -1.19 ± 0.3
14 | UUGAAGCAAUAUUACGAAUC | -3.58 ± 0.37 | -2.12 ± 0.32
15 | GCGCAGCAAUAUUACGCAAC | -1.79 ± 0.14 | -0.576 ± 0.18
16 | GAAGAGCAAUAUUACGCGGG | -3.24 ± 0.28 | -2.65 ± 0.41
17 | AGGUAGCAAUAUUACGCAUU | -1.862 ± 0.015 | -0.988 ± 0.034
18 | AAACAGCAAUAUUACGUCGG | -2.8 ± 0.11 | -1.13 ± 0.11
19 | GUUGAGCAAUAUUACGUUUG | -4.75 ± 0.32 | -2.6 ± 0.24
20 | UAAAAGCAAUAUUACGUCAU | -3.62 ± 0.14 | -1.88 ± 0.1
21 | GAGGAGCAAUAUUACGUGUG | -2.33 ± 0.22 | -2.54 ± 0.26
22 | AUCAAGCAAUAUUACGGUAG | – | -2.53 ± 0.39
23 | CGUUAGCAAUAUUACGAUAC | – | -2.64 ± 0.44
24 | GGAUAGCAAUAUUACGUAUU | -3.05 ± 0.2 | -2.21 ± 0.28
25 | CGAGAGCAAUAUUACGCCUG | -3.12 ± 0.25 | -1.73 ± 0.28

Row | Sequence | self-splicing fitness (ln) (30 °C) | self-splicing fitness (ln) (37 °C)
26 | CGUAAGCAAUAUUACGAUGU | – | -1.57 ± 0.16
27 | GCAGAGCAAUAUUACGCCAG | -2.36 ± 0.48 | –
28 | GUUGAGCAAUAUUACGACUU | -2.53 ± 0.2 | -1.92 ± 0.21
29 | UAUUAGCAAUAUUACGUGAG | -1.55 ± 0.094 | 0.0296 ± 0.13
30 | AAAGAGCAAUAUUACGAUGC | -2.54 ± 0.2 | -1.96 ± 0.27
31 | UCCAAGCAAUAUUACGUGGG | -3.89 ± 0.23 | -2.71 ± 0.18
32 | UUUAAGCAAUAUUACGCAUG | -1.07 ± 0.089 | -0.408 ± 0.099
33 | ACAUAGCAAUAUUACGAGAG | -3.57 ± 0.28 | -2.55 ± 0.18
34 | AUUGAGCAAUAUUACGUUAA | -3.84 ± 0.37 | -1.47 ± 0.26
35 | AUUGAGCAAUAUUACGUACA | -3.85 ± 0.27 | -1.87 ± 0.16
36 | AAAUAGCAAUAUUACGCAUG | -1.27 ± 0.11 | -1.03 ± 0.12
37 | AGGCAGCAAUAUUACGACAC | -1.75 ± 0.18 | -0.221 ± 0.18
38 | AAAUAGCAAUAUUACGACAU | -0.145 ± 0.012 | 0.051 ± 0.032
39 | AGUAAGCAAUAUUACGAAAA | -2.29 ± 0.38 | -1.89 ± 0.33
40 | CGGUAGCAAUAUUACGAUCG | -2.68 ± 0.22 | -2.27 ± 0.32
41 | GUAGAGCAAUAUUACGGGGU | -3.18 ± 0.2 | -2.07 ± 0.15
42 | AGCUAGCAAUAUUACGACCU | 0.703 ± 0.17 | -0.166 ± 0.18
43 | CAAGAGCAAUAUUACGACAU | -3.534 ± 0.024 | -2.85 ± 0.041
44 | UGUUAGCAAUAUUACGAUAA | -0.767 ± 0.17 | -0.345 ± 0.16
45 | UGCGAGCAAUAUUACGGCCA | -0.517 ± 0.13 | 0.5 ± 0.15
46 | CAGUAGCAAUAUUACGGUGC | -3.8 ± 0.28 | -3.2 ± 0.31
47 | GUCGAGCAAUAUUACGACAC | -0.476 ± 0.2 | -1.13 ± 0.17
48 | CUACAGCAAUAUUACGGUUG | -1.78 ± 0.078 | -1.73 ± 0.091
49 | AGUUAGCAAUAUUACGCAGU | -2.38 ± 0.23 | -2.62 ± 0.31
